PMC12697983 (PLOS Pathogens, 2025)

Assays:
[1] = target: SARS-CoV-2 Omicron BA.5 spike ectodomain trimer, prefusion-stabilised (BA.5-S6P) (SARS-CoV-2 Omicron BA.5, N440K | proline substitutions at 986 and 987 | proline substitutions at 986 and …); assay: cryo-EM structure; conditions: both partners purified
[2] = target: spike protein on native SARS-CoV-2 virions (Victoria variant) (SARS-CoV-2, Victoria isolate (entry: …, UniProt P0DTC2, strain)); assay: cryo-EM imaging of virions; conditions: one partner purified

B1: 1C4 Fab (Fab, V domains shown)
VH: QIQLVQSGPELKKPGETVKISCKASGYTFTDYGLNWVKQAPGKGLKWMGWINTYSGEPTYNDEFRGRFAFSLETSTITAYLKINNLKNEDTATYFCARGGNWDWYFDVWGAGTTVTVSS
VL: DIVLTQSPATLSVTPGDNVSLSCRASQIISNNLHWYQQKSHESPRLLIKYASQSISGIPSRFSGSGSGTDFTLSINSVETEDFGMYFCQQSNTWPLTCGSGTKLELN
[1]
  stoichiometry N: 3 Fabs per spike trimer

B2: 1C4 (murine monoclonal antibody, IgG format) (antibody, V domains shown)
VH: B1 VH
VL: B1 VL
[2]
  binding result: binds
